According to the nanobody polyreactivity screen of Harvey et al. (2022):

experiment: yeast display, Sf9 membrane polyspecificity reagent, FACS + sequencing; frameworks hold sequencing errors
Method in brief: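 Polyreactivity labels are assigned by the sorting gate from which each nanobody was recovered. The gates were low and high (top ~1%), set on anti-HA fluorescence for expression and streptavidin fluorescence for reagent binding. Before sorting, galactose-induced (36–48 hours) yeast display cells were stained for 1 hour at 4 °C with 10% biotinylated, detergent-solubilized Sf9 membrane reagent.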

Row | Sequence | polyreactivity (PSR sort gate)
1 | QVQLVESGGGLVQAGGSLRLSCAASGFYFYSYAMGGYRQAPGKERELVAVISGSGGSTYYADSVKGRFTISRDNAKNTVYLQMNSLKPEDTAVYYCAARNQGNIYGYWGQGTQVTVSS | high polyreactivity
2 | QVQLVESGGGLVQAGGSLRLSCAASGFYGNAMGWYRQAPGKERELVAAITWSGGSTYYADSVKGRFTISRDNAKNTVYLQMNSLKPEDTAVYYCNKLQHRKYNGYDYWGQGTQVTVSS | high polyreactivity
3 | QVQLVESGGGLVQAGGSLRLSCAASGFYYGIGWYRQAPGTERELVAVITRGGSTNYADSVKGRFTISRDNAKNTVYLQMISLKPEDTAVYYCAARLYWAYRYGSWGQGSQVTVSS | high polyreactivity
4 | QVQLVESGGGLVQAGGSLRLSCAASGGIFAYNAMGWYRQAPGKERELVASISSGGNTYYADSVKGRFTISRDNAKNTVYLQMNSLKPEDTAVYYCNARFYRSWRRFSREPGYNYWGQGTQVTVSS | high polyreactivity
5 | QVQLVESGGGLVQAGGSLRLSCAASGGIFAYYAMGWYRQAPGKERELVAAITSRGGRTYYADSVKGRFTISRDNAKNTVYLQMNSLKPEDTAVYYCNAERFWPWDYDYWGQGTQVTVSS | high polyreactivity
6 | QVQLVESGGGLVQAGGSLRLSCAASGGIFDINAMGWYRQAPGKERELVAAITQSGGSTYYADSVKGRFTISRDNAKKTVYLQMNSLKPEDTAVYYCAKAVWYQGFDYWGQGTQVTVSS | high polyreactivity
7 | QVQLVESGGGLVQAGGSLRLSCAASGGIFDSYAMGWYRQAPGKERELVAAISWSGDRTYYADSVKGRFTISRDNAKNTVYLQMISLKPEDTAVYYCAADDGYTYGEGYYWGQGTQVTVSS | high polyreactivity
8 | QVQLVESGGGLVQAGGSLRLSCAASGGIFFPNAMGWYRQAPGKERELVAAISWSAGSTYYADSVKGRFTISRDHAKNTVDLQMNSLKPEDTAVYYCPAAGSNYTVWYGYYYWGQGTQVTVSS | low polyreactivity
9 | QVQLVESGGGLVQAGGSLRLSCAASGGIFFSNVMGWYRQAPGKERELVAAITSGDNTNYADSVKGRFTISRDNAKNTVYLQMNSLKPEDTAVYYCNADVASEYSDKYDYWGQGTQVTVSS | low polyreactivity
10 | QVQLVESGGGLVQAGGSLRLSCAASGGIFFSYAMGWYRQAPGKERELVAAIRTNGGTTYYADSVKGRFTISRDNAKNTVYLQMNSLKPEDTAVYYCAAKQFSVTLSNYWGQGTQVTVSS | low polyreactivity
11 | QVQLVESGGGLVQAGGSLRLSCAASGGIFGGYAMGWYRQAPGKDREFVAAISRRGGSTYYADSVKGRFTISRDNAKNTVYLQMNSLKPEDTAVYYCAADRYPSLYDYWGQGTQVTVSS | high polyreactivity
12 | QVQLVESGGGLVQAGGSLRLSCAASGGIFGGYAMGWYRQAPRKERELVATITSGTSTNYADSVKGRFTISRDNAKNTVYLQMNSLKPEDTAVYYCNAGGVYPRFTFLEQGYEMEYWGQGTQVTVSS | low polyreactivity
13 | QVQLVESGGGLVQAGGSLRLSCAASGGIFGHYGMGWYRQAPGQERELVASISWNGGSTYYADSVKGRFTSSRDNAKNTVYLQMNSLKPEDTAVYYCAARAIWLRYVGYTYYYWGQGTQVTVSS | high polyreactivity
14 | QVQLVESGGGLVQAGGSLRLSCAASGGIFGINAMGWYRQAPWKERELVSAINLSGGRTYYADSVKGRFTISRDNSKNTVYLHMNSLKPEDTAVYYCAAYYGYSLYGHYEYWGQGTQVTVSS | high polyreactivity
15 | QVQLVESGGGLVQAGGSLRLSCAASGGIFGKYAMGWYRQAPGKERELVAAITSSGGSTFYADSVKGRFTNSRDNAKNTVYLQMNSLKPEDTAVYYCAARFSSYVRRYYYWGQGTQVTVSS | high polyreactivity
16 | QVQLVESGGGLVQAGGSLRLSCAASGGIFGLYTMGWYRQAPGKERELVAAISKTGGSTYYADSVKGRFTISRDNAKNTVYLQMNSLNPEDTAVYYCAADGPYDDYEYWGQGTQVTVSS | high polyreactivity
17 | QVQLVESGGGLVQAGGSLRLSCAASGGIFGRYAMGWYRQAPGKERELVAAISSRGGSTYYADSVKGRFTISRDNAKNTVYLQMNSLKPEDTAVYYCNALWVSYYTFRMDYWGQGTQVTVSS | high polyreactivity
18 | QVQLVESGGGLVQAGGSLRLSCAASGGIFGYYTMGWYRQAPGKERELVAVITRSGGSTYYADSVKGRFTISRDNAKNTVYLQMNSLKPEDTAVYYCASGWRGGRYRYFAYDYWGQGTQVTVSS | high polyreactivity
19 | QVQLVESGGGLVQAGGSLRLSCAASGGIFGYYTRGWYRQAPGKEREVVAAISRRGGSTYYADSVKGRFTISRDNAKNTVYLQMNSLKPEDTAVYYCAAGLSSGGTHYDYWGQGTQVTVSS | high polyreactivity
20 | QVQLVESGGGLVQAGGSLRLSCAASGGIFIFYAMGWYRQAPGKERELVAAISNVSSTNYADSVKGRFTISRDNAKNTVYLQMNSLKPEDTAVYYCNAVGVPSEYYSWGQGTQVTVSS | low polyreactivity
21 | QVQLVESGGGLVQAGGSLRLSCAASGGIFIRNAMGWYRQAPGKERELVATISNAGSTYADSVKGRFTISRDNAKNTVYLQMNSLKPEDTAVYYCNRDDWTYPVSQGLQEYDYWGQGTQVTVSS | low polyreactivity
22 | QVQLVESGGGLVQAGGSLRLSCAASGGIFKYNAMGWYRQAPGKERELVAAIDTSGGSTYYADSVKGRFTISRDKAKNTVYLQMNSLKPDDTAVYYCAAELCLAQYYYWGQGTQVTVTS | low polyreactivity

Row | Sequence | polyreactivity (PSR sort gate)
23 | QVQLVESGGGLVQAGGSLRLSCAASGGIFKYNAMGWYRQAPGKERELVAAIDTSGGSTYYADSVKGRFTISRDNAKNTVYLQMNSLKPEDTAVYYCAAELGLAQYYYWGQGTQVTVSS | low polyreactivity
24 | QVQLVESGGGLVQAGGSLRLSCAASGGIFKYNAMGWYRQAPGKERELVAAIDTSGGSTYYADSVKGRFTISRDNAKNTVYLQMNSLKPEDTAVYYCARRWSYQRPSFEYDSWGQGTQVTVSS | low polyreactivity
25 | QVQLVESGGGLVQAGGSLRLSCAASGGIFKYNAMGWYRTAPGKERELVAAIRSSGSTNYADSVKGRFTISRDNAKNTVYLQMNSLKPEETAVYYCNVAYGLQPYDYWGQGTQVNVSS | high polyreactivity
26 | QVQLVESGGGLVQAGGSLRLSCAASGGIFLFNAMGWYRQAPGKERELVAAITDGGSTYYADSVKGRFTISRDNAKNTVYLQMNSLKPEDTAVYYCNAEGVSLYGYDSGVDSGEDYWGQGTQVTVSS | low polyreactivity
27 | QVQLVESGGGLVQAGGSLRLSCAASGGIFLGNAMGWYRQAPGKERELVAAISWSGGSTYYADSVKGRFTISRDNAKNTVYLQMNSLKPEDTAVYYCAAAWNRGKYNYYYWGQGTQVTVSS | high polyreactivity
28 | QVQLVESGGGLVQAGGSLRLSCAASGGIFLSNAMGWSRQAPGKERELVAAISRSGGSTYYADSVKGRFTISRDNAKNTVYLQMNSLKPEDTAVYYCAARWTRNYGMNYWGQGTKVTVSS | high polyreactivity
29 | QVQLVESGGGLVQAGGSLRLSCAASGGIFLVYAMGWYRQAPGKERELVAAITPGGSTYYADSVKGRFTISRDNAKNTVYLQMNSLKPEDTAVYYCAKALYRREYSSGGYYRFDYWGQGTQVTVSS | high polyreactivity
30 | QVQLVESGGGLVQAGGSLRLSCAASGGIFPAYAMGWYRQSPGKERELVASISANGGRTYYADSVKGRFTISRDNAKNSVYLQLNSLKPEDTAVYYCNASYRSGSWRFYYWGQGTQVTVSS | high polyreactivity
31 | QVQLVESGGGLVQAGGSLRLSCAASGGIFPQYSMGWYTQAPGKERELVSAISRRGGRTYYADSVKGRFTISRDTAKNTVYLQMNSLKPEDTAVYYCAKRALTYTRYRVIYDYWGQGTQVTVSS | high polyreactivity
32 | QVQLVESGGGLVQAGGSLRLSCAASGGIFPYYVMGWYRQAPGKERELVAAINSGGTTYYADSVKGRFTISRDNAKNTVYLQMNSLKPEDTAVYYCAAYYAGFGYNYWGQGTQVTVSS | low polyreactivity
33 | QVQLVESGGGLVQAGGSLRLSCAASGGIFQGYAMGWYRQAAGKERELVAAITRGGSTNYADSVKGRFTISRDNAKNTVYLQMNSLKPEDTAVYYFAARPRWFKGYDYWGQGTQVTVSS | high polyreactivity
34 | QVQLVESGGGLVQAGGSLRLSCAASGGIFRANTMGWYRQAPGKERELVAVISWSGARTYYADSVKGRFTISRDNAKNTVYLQMNSLKPEDTAVYYCNARVPKLGSMYYWGHGTQVTVSS | high polyreactivity
35 | QVQLVESGGGLVQAGGSLRLSCAASGGIFRGYAMGWYRQAPGKERELVAAISSRDGRTYYADSVKGRFTISRDNEKNTVYLQMNSLKPEDTAVYYCAASSFNNGHRYDYWGQGTQVTVSS | high polyreactivity
36 | QVQLVESGGGLVQAGGSLRLSCAASGGIFRRYAMVWYRQAPGKERELVAGISYSGGSTYYADSVKGRFTISRDNAKNTVYLQMNSLKPEDTAVDYCATVGYVWYRSVNVWSPMDYWGQGTQVTVSS | high polyreactivity
37 | QVQLVESGGGLVQAGGSLRLSCAASGGIFRSYAMGWYRQAPGKETELVAAISWSTVSTYADSVKGRFTISRDNAKNTVYLQMYSLKPEDSAVYYCAASPFEYCYYYYGLYKEYYYWGQGNQVTVSS | low polyreactivity
38 | QVQLVESGGGLVQAGGSLRLSCAASGGIFRSYTMGWYRQAPGKERELVAAISSGASTSYADSVKGRFTISRDNAKNTVYLQMNSLKPEHTAVYYCAVGVLYAGYFYRYRYYYWGQGTQVTVSS | high polyreactivity
39 | QVQLVESGGGLVQAGGSLRLSCAASGGIFRWYVMGWYRPEPGKERDFVAAISQSGGSTYYADSVKGRFTISRDNAKNTVYLQMNCLKPEDTAVYYCAAGFYHYRSFNFDYWGQGTQVTVSS | high polyreactivity
40 | QVQLVESGGGLVQAGGSLRLSCAASGGIFSAYDMAWYRQAPGKERELVAAINSGGSTNYADSVKGRFTISRDNAKNTVYLQMNSLKPEDTAVYYCAAAKVSWFGLKYYYWGQGTQVTVSS | high polyreactivity
41 | QVQLVESGGGLVQAGGSLRLSCAASGGIFSENAMGWYRQAPGKERELVAVITTSGGSTYYADSVKGRFTISRDNAKNTVYLQMNSLKPEDTAVYYCAADVLSWEYDYWGQGTQVTVSS | low polyreactivity
42 | QVQLVESGGGLVQAGGSLRLSCAASGGIFSPNAMGWYRQAHGKERELVASISSNGGSTNYADSVKGRFTISRDNAKNTVYLQMNSLKPEDTAVYYCAGLQKRRSYWRPFYWGQGTQVTVSS | low polyreactivity
43 | QVQLVESGGGLVQAGGSLRLSCAASGGIFSPNAMGWYRQAPGKERELVAAISSNGGSTNYADSVKGRFTISRDNAKNTVYLQMNSLKPEDTAVYYCAGLQKRRSYWRPFYWGQGTQVTVSS | low polyreactivity
